Test results reported in patent publication US20180055768.

Tested on: HA-tagged wt ARRDC1

Sequence of GFP-tagged WWP2 (chain, as listed by the source): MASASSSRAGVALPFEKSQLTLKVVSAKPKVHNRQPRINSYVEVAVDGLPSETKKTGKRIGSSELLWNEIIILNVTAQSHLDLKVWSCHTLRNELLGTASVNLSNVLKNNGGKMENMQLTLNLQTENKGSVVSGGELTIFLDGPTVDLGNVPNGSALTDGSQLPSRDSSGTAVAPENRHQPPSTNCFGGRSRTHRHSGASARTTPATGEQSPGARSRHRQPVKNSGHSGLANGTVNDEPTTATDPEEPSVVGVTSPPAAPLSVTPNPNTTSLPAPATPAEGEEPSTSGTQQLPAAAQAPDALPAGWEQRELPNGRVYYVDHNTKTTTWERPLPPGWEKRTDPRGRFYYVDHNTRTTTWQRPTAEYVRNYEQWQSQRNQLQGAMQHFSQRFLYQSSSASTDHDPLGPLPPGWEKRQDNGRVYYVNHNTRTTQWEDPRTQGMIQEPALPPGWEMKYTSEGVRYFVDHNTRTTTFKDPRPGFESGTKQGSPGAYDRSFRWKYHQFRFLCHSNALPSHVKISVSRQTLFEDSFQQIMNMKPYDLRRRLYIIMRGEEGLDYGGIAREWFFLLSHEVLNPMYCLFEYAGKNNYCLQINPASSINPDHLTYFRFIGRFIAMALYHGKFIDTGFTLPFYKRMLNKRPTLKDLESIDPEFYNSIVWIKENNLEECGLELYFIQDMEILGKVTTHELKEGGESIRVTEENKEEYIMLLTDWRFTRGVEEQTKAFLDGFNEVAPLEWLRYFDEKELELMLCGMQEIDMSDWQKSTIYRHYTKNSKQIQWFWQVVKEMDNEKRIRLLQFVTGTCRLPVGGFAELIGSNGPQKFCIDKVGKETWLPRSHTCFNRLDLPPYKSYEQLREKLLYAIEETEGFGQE

GFP-tagged WWP2
ubiquitination of ARRDC1 (immunoblot of WCEs and ARMMs): ubiquitination of ARRDC1 was enhanced by WWP2
